Results published in patent publication US20230398151A1.
Where two headings read alike, the source gives them in different places.

How the values were obtained:
[1] = target: TGFβ1 (R&D systems) (UniProt P01137); assay: cell-based or functional assay
[2] = target: TGFβ1 (R&D systems) (UniProt P01137); assay: cell-based or functional assay; remark: listed apart in the source

Sequence of TGFβ1 (R&D systems) (P01137 279-390 limits assumed): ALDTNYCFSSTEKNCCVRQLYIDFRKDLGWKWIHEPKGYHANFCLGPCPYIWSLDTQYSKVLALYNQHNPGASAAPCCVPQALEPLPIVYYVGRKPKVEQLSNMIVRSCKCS

## TGFR-Fc (R&D Systems) (from UniProt P37173 24-159) (Fc fusion)
[1]
  IC50 of TGFβ1 activity in HEK-Blue TGFβ cells: 0.461 nM
[2]
  IC50 of TGFβ1 activity in HEK-Blue TGFβ cells: 0.559 nM
